Experimental findings from publication PMC2517623 are described below.

The assay addresses Crm1 (Xpo1) (UniProt P30822). The assay can be described thus: biotin-peptide streptavidin pulldown, stained gel.

For the substance “Ace2 122-150 (from UniProt P21192) pS137 peptide”, for the setting “reference: unphosphorylated 122-150 peptide, sites S137”, the “binding against the reference” value is listed as “weaker”.

For the substance “Ace2 122-150 (from UniProt P21192) pS122 peptide, λ-phosphatase treated”, the “binding against the reference” value (reference: pS122 peptide, untreated, sites S122) is “stronger”.

As to “Ace2 122-150 (from UniProt P21192) pS122 peptide”, under “reference: unphosphorylated 122-150 peptide, sites S122”, the “binding against the reference” value is “weaker”.

For “Ace2 122-150 (from UniProt P21192) pS137 peptide, λ-phosphatase treated”, the “binding against the reference” value (reference: pS137 peptide, untreated, sites S137) is listed as “stronger”.
